Results reported in patent US20200109211A1 (ELSALYS BIOTECH, published 2020).
Positions count from the first letter of the chain named. Names may count otherwise.

Columns and labels:
[1] = target: T1, recombinant human CD160 protein, soluble form, with a C-terminal tag of 6 histidine residues (R&D SYSTEMS) (human, UniProt O95971 27-159, limits assumed, biotinylated with EZ-Link sulfo-NHS-LC-biotin for BLI and ELISA; not biotinylated when immobilised on the CM5 chip for SPR); test: BLI, biotinylated CD160 at 10 nM on streptavidin sensor, antibody 3.13-100 nM
T1 construct: domain: soluble form; Bought protein; also called hCD160-his; biotinylated CD160
T1 sequence: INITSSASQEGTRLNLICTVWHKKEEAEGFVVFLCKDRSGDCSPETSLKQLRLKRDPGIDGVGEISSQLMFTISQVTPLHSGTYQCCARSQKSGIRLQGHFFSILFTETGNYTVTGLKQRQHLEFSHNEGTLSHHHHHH
Description: (§1) All the experiments were carried out at 30° C. in the running buffer recommended by Fortebio (PBS with 0.1% (p/v) of bovine serum albumin (BSA) and 0.02% (v/v) Tween-20). This buffer was also used for diluting the various ligands and analytes. The samples deposited in a 96-well microplate (cat #738-0026, Dutscher) were shaken at 1000 revolutions per minute.
(§2) The dissociation constants and the association (kₒₙ) and dissociation (kdis) rate constants for each antibody were calculated by applying a 1:1 interaction model, with overall mathematical modelling of curves (fit) (Rmax bound by the sensor) on the ForteBio 9.0 data analysis software.

[2] = target: T2, human CD160 (CD160 GPI isoform) on cells (human, UniProt O95971 25-159, GPI anchor); test: flow cytometry on CHO-hCD160 transfectants
T2 construct: whole, on cells; Used for all cells said to carry human CD160: transfected CHO-S and E300 cells and cells that carry it naturally (YT2C2, blood NK, CD8+ T, T CD4, CLL cells); also called hCD160; CHO-S-hCD160 (clone 2G10)
T2 sequence (looked up): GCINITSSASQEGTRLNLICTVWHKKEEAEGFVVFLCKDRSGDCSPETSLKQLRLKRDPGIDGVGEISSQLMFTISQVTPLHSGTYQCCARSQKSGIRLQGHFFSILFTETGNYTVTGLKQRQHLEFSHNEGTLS
Description: The binding capacity of the anti-CD160 H7 antibodies and of the variants (D12 and A09) thereof in the IgG4 and IgG1 format and in the IgG1 E345K format was evaluated during the labelling of surface CD160 expressed in a recombinant line CHO-S-hCD160 (clone 2G10) in comparison with non-transfected CHO-S cells, by measuring the median fluorescence index (MFI) (see FIG. 1). For this, 5×10⁺⁵ 2G10 (CHO-S-CD160) and non-transfected CHO-S cells were labelled with 2 μg of each of these antibodies and also with the appropriate control isotypes. In FIG. 1, all the anti-CD160 tested (regardless of the isotype or the IgG format or the variant) specifically recognize human CD160 expressed recombinantly by the CHO-S cells.
In FIG. 1B, the IgG4 variants bind more efficiently to the CHO-hCD160 transfectants than H7 (which results in a median fluorescence increased by a factor of 2 compared with H7 IgG4 ELB01101 or with H7 IgG4 H310A-H435Q ELB01102), this being even in the presence of the H310A-H435Q mutations.

[3] = target: T2, human CD160 (CD160 GPI isoform) on cells; test: cell-based or functional assay
[4] = target: T1, recombinant human CD160 protein, …; test: BLI
[5] = target: T1, recombinant human CD160 protein, …; test: BLI, biotinylated CD160 at 10 nM on streptavidin sensor, antibody 3.13-100 nM; remark: listed apart in the source
[6] = target: T1, recombinant human CD160 protein, …; test: BLI (repeats Table 8)
[7] = target: T1, recombinant human CD160 protein, …; test: SPR (Biacore), design close to Example 2
[8] = target: T1, recombinant human CD160 protein, …; test: BLI (repeats Table 7)
[9] = target: T1, recombinant human CD160 protein, …; test: BLI (Octet K2), biotinylated hCD160-His on streptavidin sensor, antibody as analyte
Description: as §1
Between the measurements, the surfaces of the biosensor were regenerated by exposing them to 3 cycles of 5 sec in 10 mM glycine, pH 2, followed by 5 sec in running buffer. The association and dissociation phases were measured for 300 seconds. All the measurements were corrected for the basic drift by subtracting a reference well with a ligand subjected only to the running buffer.
as §2

[10] = target: T1, recombinant human CD160 protein, …; test: BLI, biotinylated CD160 at 10 nM on streptavidin sensor, antibody 3.13-100 nM; remark: listed apart in the source
Description: as §2

[11] = target: T1, recombinant human CD160 protein, …; test: BLI (repeats Table 9)
[12] = target: T1, recombinant human CD160 protein, …; test: BLI, biotinylated CD160 at 10 nM on streptavidin sensor, antibody 3.13-100 nM; remark: listed apart in the source

B1: A09 in the IgG1 E345K format (antibody)
heavy: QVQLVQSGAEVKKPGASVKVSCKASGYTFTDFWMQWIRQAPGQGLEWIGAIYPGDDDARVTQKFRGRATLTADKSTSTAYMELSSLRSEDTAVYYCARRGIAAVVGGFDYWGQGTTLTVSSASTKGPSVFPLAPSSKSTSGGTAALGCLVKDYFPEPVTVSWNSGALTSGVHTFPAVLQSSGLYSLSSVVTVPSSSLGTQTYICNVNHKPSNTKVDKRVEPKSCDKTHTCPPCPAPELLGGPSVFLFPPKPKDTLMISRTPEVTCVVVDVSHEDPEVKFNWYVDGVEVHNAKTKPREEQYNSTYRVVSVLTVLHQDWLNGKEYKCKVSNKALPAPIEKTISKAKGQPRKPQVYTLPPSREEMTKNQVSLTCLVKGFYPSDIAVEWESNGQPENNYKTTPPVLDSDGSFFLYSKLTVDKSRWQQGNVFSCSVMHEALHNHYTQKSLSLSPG
light: EIVLTQSPATLSLSPGERATLSCRASQSISNHLHWYQQKPGQAPRLLIKYASQSISGIPARFSGSGSGTDFTLTISSLEPEDFAVYFCQQSNSWPLTFGGGTKVEIKRTVAAPSVFIFPPSDEQLKSGTASVVCLLNNFYPREAKVQWKVDNALQSGNSQESVTEQDSKDSTYSLSSTLTLSKADYEKHKVYACEVTHQGLSSPVTKSFNRGEC
notes: also called ELB02114
- Kd [1]: 1.93 nM
- koff [1]: 0.000825 s⁻¹
- kon [1]: 427000 M⁻¹ s⁻¹
- median fluorescence, factor against H7 IgG1 [2]: 3 fold
- EC50 of IFN-gamma production by NK cells, additional improvement against the IgG1 variants [3]: 2 logs
- EC50 of IFN-gamma production by NK cells, improvement against ELB02101 [3]: 4 logs

B2: F04 IgG4 S228P/R409K (antibody)
heavy: QVQLVQSGAEVKKPGASVKVSCKASGYTFSDYWMQWIRQAPGQGLEWIGAIYPGDDDARYTQKFRGRATLTADKSTSTAYMELSSLRSEDTAVYYCARRGIAAVVGGFDYWGQGTTLTVSSASTKGPSVFPLAPCSRSTSESTAALGCLVKDYFPEPVTVSWNSGALTSGVHTFPAVLQSSGLYSLSSVVTVPSSSLGTKTYTCNVDHKPSNTKVDKRVESKYGPPCPPCPAPEFLGGPSVFLFPPKPKDTLMISRTPEVTCVVVDVSQEDPEVQFNWYVDGVEVHNAKTKPREEQFNSTYRVVSVLTVLAQDWLNGKEYKCKVSNKGLPSSIEKTISKAKGQPREPQVYTLPPSQEEMTKNQVSLTCLVKGFYPSDIAVEWESNGQPENNYKTTPPVLDSDGSFFLYSKLTVDKSRWQEGNVFSCSVMHEALHNQYTQKSLSLSLG
light: B1 light
notes: also called ELB01106
- Gain in KD/respective IgG [4]: 1.8 fold
- Kd [5]: 1.63 nM
- koff [5]: 0.000736 s⁻¹
- kon [5]: 453000 M⁻¹ s⁻¹
- Kd [6]: 1.63 nM
- koff [6]: 0.000736 s⁻¹
- kon [6]: 453000 M⁻¹ s⁻¹
- Gain in KD/respective IgG [7]: 3.5 fold
- Kd [7]: 4.1 nM
- koff [7]: 0.000721 s⁻¹
- kon [7]: 176000 M⁻¹ s⁻¹

B3: H7 IgG4 S228P/R409K (antibody)
heavy: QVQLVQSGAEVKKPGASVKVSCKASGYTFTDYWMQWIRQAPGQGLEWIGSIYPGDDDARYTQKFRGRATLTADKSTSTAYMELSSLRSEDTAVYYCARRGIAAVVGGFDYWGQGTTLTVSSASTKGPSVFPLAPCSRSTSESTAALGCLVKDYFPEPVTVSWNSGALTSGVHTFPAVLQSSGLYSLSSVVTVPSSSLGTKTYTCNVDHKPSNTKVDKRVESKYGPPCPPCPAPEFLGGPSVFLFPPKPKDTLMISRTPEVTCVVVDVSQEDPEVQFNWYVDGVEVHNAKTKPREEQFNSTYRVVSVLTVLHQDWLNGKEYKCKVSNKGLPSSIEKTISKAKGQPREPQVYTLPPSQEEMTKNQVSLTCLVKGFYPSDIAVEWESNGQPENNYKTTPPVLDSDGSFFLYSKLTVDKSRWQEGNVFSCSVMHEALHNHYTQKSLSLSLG
light: B1 light
notes: also called ELB01101; H7 IgG4 WT
- Kd [8]: 2.61 nM
- koff [8]: 0.00123 s⁻¹
- kon [8]: 469000 M⁻¹ s⁻¹
- Binding response, at 50 nM of anti-CD160 [9]: 0.6 nm (arbitrary units)
- Kd [9]: 4.49 nM
- koff [9]: 0.00157 s⁻¹
- kon [9]: 350000 M⁻¹ s⁻¹
- Kd [10]: 2.61 nM
- koff [10]: 0.00123 s⁻¹
- kon [10]: 469000 M⁻¹ s⁻¹
- Kd [7]: 13.1 nM
- koff [7]: 0.00285 s⁻¹
- kon [7]: 218000 M⁻¹ s⁻¹

B4: F04 in the IgG1 E345K format (antibody)
heavy: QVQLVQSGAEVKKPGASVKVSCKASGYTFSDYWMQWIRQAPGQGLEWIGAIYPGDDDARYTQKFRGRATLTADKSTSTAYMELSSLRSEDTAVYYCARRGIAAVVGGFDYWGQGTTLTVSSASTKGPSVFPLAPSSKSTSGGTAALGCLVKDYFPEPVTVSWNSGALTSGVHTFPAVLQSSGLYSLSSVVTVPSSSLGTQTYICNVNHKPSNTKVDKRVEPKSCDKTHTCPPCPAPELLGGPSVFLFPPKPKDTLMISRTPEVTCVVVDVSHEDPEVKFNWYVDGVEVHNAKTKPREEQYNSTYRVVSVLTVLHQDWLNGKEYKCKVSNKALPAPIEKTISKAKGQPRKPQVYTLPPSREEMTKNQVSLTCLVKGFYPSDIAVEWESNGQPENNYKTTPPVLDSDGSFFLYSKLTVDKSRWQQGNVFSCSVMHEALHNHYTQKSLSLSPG
light: B1 light
notes: also called ELB02113
- Kd [1]: 1.55 nM
- koff [1]: 0.000662 s⁻¹
- kon [1]: 427000 M⁻¹ s⁻¹
- EC50 of IFN-gamma production by NK cells, additional improvement against the IgG1 variants [3]: 2 logs
- EC50 of IFN-gamma production by NK cells, improvement against ELB02101 [3]: 4 logs

B5: H7 IgG4 S228P/R409K/H310A/H435Q (antibody)
heavy: B2 heavy with S30T, A50S
light: B1 light
notes: also called ELB01102; H7 IgG4 H310A-H435Q
- Kd [5]: 2.91 nM
- koff [5]: 0.00148 s⁻¹
- kon [5]: 507000 M⁻¹ s⁻¹
- Kd [6]: 2.91 nM
- koff [6]: 0.00148 s⁻¹
- kon [6]: 507000 M⁻¹ s⁻¹
- Kd [7]: 14.5 nM
- koff [7]: 0.00297 s⁻¹
- kon [7]: 205000 M⁻¹ s⁻¹

B6: F04 in the IgG1 format (antibody)
heavy: not shown
light: B1 light
notes: also called ELB02103
- Kd [11]: 1.43 nM
- koff [11]: 0.000531 s⁻¹
- kon [11]: 371000 M⁻¹ s⁻¹
- Gain in KD/respective IgG [4]: 2.1 fold
- Gain in KD/respective IgG [7]: 3.3 fold
- Kd [7]: 3.6 nM
- koff [7]: 0.000726 s⁻¹
- kon [7]: 200000 M⁻¹ s⁻¹
- EC50 of NK cell activation (IFN-γ, CD69), improvement against ELB02101 [3]: 2 to 3 logs
- Kd [12]: 1.43 nM
- koff [12]: 0.000531 s⁻¹
- kon [12]: 371000 M⁻¹ s⁻¹

B7: chimerized antibody issued from CL1-R2 in the human IgG1 format (antibody, V domains shown)
VH: QVHLQQSGAELARPGASVKLSCKASGYTFTDYWMQWIKQRPGQGLEWIGSIYPGDDDARYTQKFRGKATLTADKSSSTAYMQLSSLASEDSAVYYCARRGIAAVVGGFDYWGQGTTLTVSS
VL: DIVLTQSPATLSVTPGNSVSLSCRASQSISNHLHWYQQKSHESPRLLIKYASQSISGIPSRFSGSGSGTDFTLSINSVETEDFGMYFCQQSNSWPLTFGAGTKLELK
notes: also called chIgG1; chimeric IgG1
- Binding response, at 50 nM of anti-CD160 [9]: 0.41 nm (arbitrary units)
- Kd [9]: 14.3 nM
- koff [9]: 0.00297 s⁻¹
- kon [9]: 208000 M⁻¹ s⁻¹

B8: CL1-R2 murine monoclonal anti-human CD160 antibody (antibody, V domains shown)
VH: B7 VH
VL: B7 VL
notes: Murine IgG1; also called parental CL1-R2; murine anti-CD160 IgG1
- Binding response, at 50 nM of anti-CD160 [9]: 0.6 nm (arbitrary units)
- Kd [9]: 15.4 nM
- koff [9]: 0.00283 s⁻¹
- kon [9]: 183000 M⁻¹ s⁻¹

B9: chimerized antibody issued from CL1-R2 in the human IgG4 format (antibody, V domains shown)
VH: B7 VH
VL: B7 VL
notes: also called chIgG4; chimeric IgG4
- Binding response, at 50 nM of anti-CD160 [9]: 0.41 nm (arbitrary units)
- Kd [9]: 14.8 nM
- koff [9]: 0.00323 s⁻¹
- kon [9]: 218000 M⁻¹ s⁻¹
